Test results reported in the nanobody polyreactivity screen of Harvey et al. (2022).

Assay: yeast display, Sf9 membrane polyspecificity reagent, FACS + sequencing; frameworks hold sequencing errors
In short: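 Sorting gates, low and high (top ~1%), were placed on anti-HA fluorescence to track expression and on streptavidin fluorescence to track reagent binding. A clone's polyreactivity label is taken from the gate it came out of. The reagent was 10% biotinylated, detergent-solubilized Sf9 membrane, applied for 1 hour at 4 °C to galactose-induced yeast display cells.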

| Sequence | polyreactivity (PSR sort gate) |
| --- | --- |
| QVQLVESGGGLVQAGGSLRLSCASSGSTFHVNAMGWYRQAPGKERELVARISSTGRTSYADSVKGRFTISRDNAKNTVYLQMNSLKPEDTAVYYCAARYYRVYVSSDYYYWGQGTQVTVSS | high polyreactivity |
| QVQLVESGGGLVQAGGSLRLSCASSGSTFPYNAMGWYRQAPGKERELVAAITSSGRTNYADSVKGRFTISRDNAKNTVYLQMNSLKPEDTAVYYCAAGRWYAHRVDYWGQGTQVTVSS | low polyreactivity |
| QVQLVESGGGLVQAGGSLRLSCASSGSTFTTNALGWYRQAPGKERELVAAISRRGGSTYYADSVKGRFRISRDNAKNTVYLQMNSLKPEDTAVYYCNAVRAEYEFDYWGQGTQVTVSS | high polyreactivity |
| QVQLVESGGGLVQAGGSLRLSCASSGSTFWVNVMGWYRQAPGKERELVATITSGGRTNYADSVKGRFTISRDNAKNTVYLQMNCLKPEDTAVYYCAADLKRGYLMDYWGQGTQVTVSS | low polyreactivity |
| QVQLVESGGGLVQAGGSLRLSCASSGTFFGYAMGWYRQAPGKERELVAAITSGGSTYYADSVKGRFTISRDNAKNTVYLQMNSLKPEDTAGYYCARVYSRWSYRYDYWGQGTQVTVST | low polyreactivity |
| QVQLVESGGGLVQAGGSLRLSCASSGTFRLYAMGWYRQAPGKEREFVAAITSGGRTYADSVKGRFTISRDNAKNTVYLQMNSLKPEDTAVYYCAADAGRILFSGYDYWGQGTQVTVSS | low polyreactivity |
| QVQLVESGGGLVQAGGSLRLSCASSGYTIPLYAMVWYRQAPGKERELVADINIGGASTYYADSVKGRFTISRDNAKYTVYLQMNSLKPEDTAVYYCAKEYYDGYFTTFEYDYWGQGTQVTVSS | low polyreactivity |
| QVQLVESGGGLVQAGGSLRLSCATSGNIFWRYSIRWYRQAPGKEREFVAGISLRGSSTYYADSVKGRFTISRDNAKNTVYLEMNSLKPEDTAVYYCAVRQPRGSTVFYGGNYWGQGTQVTVSS | low polyreactivity |
| QVQLVESGGGLVQAGGSLRLSCATSGRIFHRYAMGWYRQAPGKERELVAGISSSGGSTYADSVKGRFTISRDNAKNTVYLQMNSLKPEDTAVYYCAKYFTDVSRHTYDYWGQGTQVTVSS | high polyreactivity |
| QVQLVESGGGLVQAGGSLRLSCATSGSIFVFNAMGWYRQAPGKERELVAAIDTSDDITYYADSVKGRFTISRDNAKNTVYLQMNSLKPEDTAVYYCNAETYGLVPYYIYHYEFDYWGQGTQVTVSS | high polyreactivity |
| QVQLVESGGGLVQAGGSLRLSCAVSGGILYEYAMGSDREAPGKERELVAAITTSGSTYYADSVKGRFTISRDNAKNTVDLLMNSLKPEDTAVYYCAADSDYFYYDLDYWGQGTQVTVSS | low polyreactivity |
| QVQLVESGGGLVQAGGSLRLSCAVSGRTFYYYAMGWYRQAPGKERELVAAISSSGGSTYYADSVKGRFTISRDNAMNTVYLQLNRLKPEDTAVYYCNAYTTRSYGFDYWGQGTQVTVSS | high polyreactivity |
| QVQLVESGGGLVQAGGSLRLSCAYSGRTICSNAMGWYRQAPGKESELVARIDSTYYADSVKGRFTISRDNAKNTVYLQMNSLKPEDTAVYYCAADAWDHWTWFYPTNGMDYWGQGTQVNVSS | low polyreactivity |
| QVQLVESGGGLVQAGGSLRLSCDASALTIITNAMGWYRQAPGKERELVAAISGTGGSTYYADSVKGRFTISRDNAKYTVYLQMNSLKPEDTAVYYCAAAPYTFWVGDSWGQGTQVTVSS | high polyreactivity |
| QVQLVESGGGLVQAGGSLRLSCDASARTFWRNAMGWYRQAPGKERELVAAISYSGGSTYYADSVKGRFTISRDYAKNTVYLQMNSLKPEDTAVYYCAVVYSTSSLYSGYYWGQGTQVTVSS | low polyreactivity |
| QVQLVESGGGLVQAGGSLRLSCDASGFIFNYYVMGWYRQAPGKERELVAAISRSGGSTYYADSVKGRFTISRDNAKNTVYLQKNSLKTEDTAVYYCAAEYGYGKRAYDSWGQGTQVTVSS | high polyreactivity |

| Sequence | polyreactivity (PSR sort gate) |
| --- | --- |
| QVQLVESGGGLVQAGGSLRLSCDASGFIFVVYALGWYRQAPGKERDLVAAITNGGITYYADSVKGRFTISRDNAKNTVYLQMNSLKPEDTAVYYCNAQYTVYDGYVCYYYWGQGTQVTVSS | low polyreactivity |
| QVQLVESGGGLVQAGGSLRLSCDASGFTFVSYAMGSYRQAPGKERELVAVISYRAGSTYYADSVKGRFTISRDNAKNTVYLPMYSLKPEDTAVYYCATDRYSRRNDYWGQGTQVTVSS | high polyreactivity |
| QVQLVESGGGLVQAGGSLRLSCDASGFTLEKNAMGWYRQAPGKERELVADISSTDSTNYADSVKGRFTISRDNAKNTVYIQMNSLKPEDTAVYYCGRYDGPGTEEFDYWGQGTQVTVSS | low polyreactivity |
| QVQLVESGGGLVQAGGSLRLSCDASGIFVGYTLGWYRQAPRKERELVAAIRWTDGSTYYADSVKGRFTISRDNAKNTVYLQRNSLNPEDTAVYDCGADSNDPARYYYGDEFEDEYWGQGTQVTVSS | low polyreactivity |
| QVQLVESGGGLVQAGGSLRLSCDASGIIFGFNTMGWYRQAPVKERELVAAINGSDGSTYADSVKGRFTISRDNAKNTVYLQMISVKPEDTAVYYCAKALDYRYRRYDYWGQGTQVTVSS | low polyreactivity |
| QVQLVESGGGLVQAGGSLRLSCDASGIIFVKYAMGWYRQAPGKERELVAAITSGGSTYYADSVKGRFTISRDNAKNTVYLQMNSLKPEDTAVYYCNADTWFLYFFTINGYWGQGTQVTVSS | high polyreactivity |
| QVQLVESGGGLVQAGGSLRLSCDASGITFWGYVMGWYRQAPGKERELVAAISSSGGRTYYADSVKGRFTISLDNAKNTVYLQMNSLKPEDTAVYYCAARFLYANRYSVDYDYCGQGTQVTVSS | high polyreactivity |
| QVQLVESGGGLVQAGGSLRLSCDASGITFWNALGWYRQAPGKERELVAAITSSGGSTYYADSVKGRFTISRDNAKNTVDLQMNSLKPEDTAVYYCAADYGRTRYDMDYWGQGTQVTVSS | low polyreactivity |
| QVQLVESGGGLVQAGGSLRLSCDASGITITEYARGWYRQAPGTERELVAVISSVGTMYYADSVKGRFTISRDNEKNTVYLQMKSLKPEDTAVYYCAADYTDDGEYPYWSGSDYWGQGTQVTVSS | low polyreactivity |
| QVQLVESGGGLVQAGGSLRLSCDASGLTFAYYAMGWYRQAPGKERELVAAISSSGGRTYYADSVKGRFTISRDNAKNTVYLQMNSLKPEDTAVYYCAKSRYSTQTDYNYWGQGTQVTVSS | high polyreactivity |
| QVQLVESGGGLVQAGGSLRLSCDASGLTFDYNAMGWYRQAPGKERELVAAITWSGGSTYYADSVKGRFTISRDNAKNTVYLQMNSLKPEDTAVYYCARDGVGRGYGYFTPLGYDYWGQGTQVTVSS | low polyreactivity |
| QVQLVESGGGLVQAGGSLRLSCDASGLTFGWNAMGWSRQAPGKERELVAALSYNGVSTHYADTVKGRFTISRDNAKNTVYLQMNSLKPEDTAVYYCAARALTWPYGGTAPRLYNYWGQGTQVTVSS | low polyreactivity |
| QVQLVESGGGLVQAGGSLRLSCDASGLTFHRYAMGWYRQAPGKERELVAAINYSGGRTYYADSVKGRFTISRDNAKNTFYLQMNSLKPEDTAVYYCAAPRASGYFWGQGTQLTVSS | high polyreactivity |
| QVQLVESGGGLVQAGGSLRLSCDASGRIFGSYAMGWYRQAPGKERELVAAITYSGGRTYYADSVKGRFTISRDNAKNTVYLQMNSLKPEDTAVYYCNALGRLTSQYDYWGQGTQVTVSS | high polyreactivity |
| QVQLVESGGGLVQAGGSLRLSCDASGRIFRKYAMGWYRQAPGKERELVAGITWRGTSTYYADSVKGRFTISRDNAKNTVYLPMNSLKPEDTAVYYCAAEWKGYYVHDYWGQGTQVTVSS | high polyreactivity |
| QVQLVESGGGLVQAGGSLRLSCDASGRIFSYYAMGWYRPAPGKERELVAAITRSGGNTYYADSVKGRFTISRDNAKNTVYLLMNSLKPEDTAVYYCAARLGRPFYGPNRYDYWGQGTQVTVSS | high polyreactivity |
